The values below come from paper PMC3919264.

Assay [1] has as its target taxol-polymerized microtubules from bovine brain tubulin (bovine (purified from bovine brain)) (UniProt Q6B856).
Assay [2] has the same target. The assay is described as follows: co-sedimentation; MT pelleting assay with 4 mU apyrase ('nucleotide-free' state): Kif15 19-375 (1–12 µM) mixed with taxol-polymerized MTs (5 µM), 50 mM PIPES pH 6.9, 20 mM NaCl, 2 mM MgCl2, 1 mM DTT, room temperature 10 min, 100 000g at 25°C for 20 min, SDS–PAGE of supernatants and pellets.
Assay [3] has the same target. Nature of the assay: co-sedimentation; MT pelleting assay with 2 mM AMP-PNP: Kif15 19-375 (1–12 µM) mixed with taxol-polymerized MTs (5 µM), 50 mM PIPES pH 6.9, 20 mM NaCl, 2 mM MgCl2, 1 mM DTT, room temperature 10 min, 100 000g at 25°C for 20 min, SDS–PAGE of supernatants and pellets.
The target is the same in assay [4]. The source holds these as a separate data set.

B1: Homo sapiens Kif15 motor domain and neck-linker region (Kif15 19-375) (domain or fragment)
chain: QPSNEGDAIKVFVRIRPPAERSGSADGEQNLCLSVLSSTSLRLHSNPEPKTFTFDHVADVDTTQESVFATVAKSIVESCMSGYNGTIFAYGQTGSGKTFTMMGPSESDNFSHNLRGVIPRSFEYLFSLIDREKEKAGAGKSFLCKCSFIEIYNEQIYDLLDSASAGLYLREHIKKGVFVVGAVEQVVTSAAEAYQVLSGGWRNRRVASTSMNRESSRSHAVFTITIESMEKSNEIVNIRTSLLNLVDLAGSERQKDTHAEGMRLKEAGNINRSLSCLGQVITALVDVGNGKQRHVCYRDSKLTFLLRDSLGGNAKTAIIANVHPGSRCFGETLSTLNFAQRAKLIKNKAVVNEDTQG
Take B1: the MT activation of Mant-ADP release, stopped flow, 25°C, various MT concentrations with chasing Mg2+-ATP (MTs here from pig brain tubulin; preliminary data) in assay [1] is 1000 fold. In assay [2], this molecule yielded a Kd of 400 nM and a stoichiometry N of 1.3. In assay [3], this molecule yielded a Kd of 500 nM and a stoichiometry N of 1.1. This molecule gave a K 0.5,MT of the MT-stimulated ATPase activity (MTs 0 to 10 µM, 1 mM ATP, no KCl, 25°C) in assay [4] of 1.1 µM.

Usually Kd stands for the equilibrium constant for the complex coming apart. Low values mean higher affinity, high ones lower affinity. The term stoichiometry N denotes the number of molecules, sites or subunits per partner or assembly.
